In patent publication US20190338027A1 (ALLAKOS, published 2019):

Target: human Siglec-8 on lung mast cells from COPD patients (human, UniProt Q9NYZ4 17-499)
Experiment: cell-based or functional assay

Sequence of human Siglec-8 on lung mast cells from COPD patients (Q9NYZ4 17-499): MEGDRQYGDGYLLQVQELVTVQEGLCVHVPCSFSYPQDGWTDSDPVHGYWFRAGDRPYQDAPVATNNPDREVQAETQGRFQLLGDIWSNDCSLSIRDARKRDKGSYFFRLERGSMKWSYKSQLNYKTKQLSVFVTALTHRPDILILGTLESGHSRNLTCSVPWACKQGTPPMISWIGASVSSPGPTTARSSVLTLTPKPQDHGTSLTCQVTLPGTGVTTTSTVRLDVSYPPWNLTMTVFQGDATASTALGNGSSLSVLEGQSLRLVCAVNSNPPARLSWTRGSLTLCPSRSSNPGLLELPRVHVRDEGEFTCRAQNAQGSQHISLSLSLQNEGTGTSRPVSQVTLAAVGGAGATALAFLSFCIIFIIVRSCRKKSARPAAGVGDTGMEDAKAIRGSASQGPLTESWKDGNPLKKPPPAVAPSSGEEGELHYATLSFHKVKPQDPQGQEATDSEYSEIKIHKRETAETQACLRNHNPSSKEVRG

B1: anti-Siglec-8 IgG4 antibody (HEKA) (antibody, V domains shown)
VH: EVQLVESGGGLVQPGGSLRLSCAASGFSLTIYGAHWVRQAPGKGLEWVGVIWAGGSTNYNSALMSRFTISKDNSKNTVYLQMNSLRAEDTAVYYCARDGSSPYYYSMEYWGQGTTVTVSS
VL: EIVLTQSPATLSLSPGERATLSCSATSSVSYMHWFQQKPGQAPRLLIYSTSNLASGIPARFSGSGSGTDFTLTISSLEPEDFAVYYCQQRSSYPFTFGPGTKLDIKR
- decrease in VEGF secreted into the cell supernatant by COPD lung tissue homogenates incubated overnight with antibody, relative to isotype control antibody: ~50%
